Measured values as given in publication PMC3723849 (PLoS ONE, 2013).
No end group written: not given here. *: point of attachment. Acm = CC(=O)NC*

B1: Peptide 565 (peptide)
peptide: ARMFLLFLMRC(Acm)IGC(Acm)Y
modifications: not fully specified
notes: 15-mer from phage clone C; Made on Rink amide resin, so a C-terminal amide is to be expected (surmised); source: synthetic peptide (HPLC purified)
B2: Phage clone 2 (round 2 of panning) (peptide)
chain: GTAVASRVYSLHSLM
notes: source: phage clone from the fUSE5 15-mer library, amplified in E. coli K91BluKan; not shown: bacteriophage coat protein (fd phage, fUSE5 library), C-terminal, kept
B3: Peptide 564 (peptide)
peptide: LSFFSC(Acm)WLRRSFSLT
notes: 15-mer from phage clone G; Made on Rink amide resin, so a C-terminal amide is to be expected (surmised); source: synthetic peptide (HPLC purified)

Tests used:
[1] = target: T1, His-tagged PSMA (PSMA-His6), soluble ectodomain of prostate-specific membrane antigen (human, UniProt Q04609 44-750); experiment: AlphaScreen or HTRF; competition: 563-biotin on streptavidin donor beads, PSMA-His6 on nickel chelate acceptor beads, unlabeled peptide at various concentrations; ambient temperature; 25 mM HEPES, 100 mM NaCl, pH 7.4; IC50 used to approximate KD; details: both partners purified
T1 construct: prostate-specific membrane antigen (PSMA), human, soluble ectodomain; also called soluble PSMA; poly-histidine tagged PSMA; source: bought: R&D Systems

[2] = target: T1, His-tagged PSMA (PSMA-His6), soluble …; experiment: immunostaining of cells or tissue; competition: LNCaP cells pre-incubated with soluble PSMA-His6 (100 nM, 2 h, 37°C) before the phage clones were added; loss of phage staining read by confocal microscopy (rfu in ten cells); details: both partners purified

T1 sequence (Q04609 44-750): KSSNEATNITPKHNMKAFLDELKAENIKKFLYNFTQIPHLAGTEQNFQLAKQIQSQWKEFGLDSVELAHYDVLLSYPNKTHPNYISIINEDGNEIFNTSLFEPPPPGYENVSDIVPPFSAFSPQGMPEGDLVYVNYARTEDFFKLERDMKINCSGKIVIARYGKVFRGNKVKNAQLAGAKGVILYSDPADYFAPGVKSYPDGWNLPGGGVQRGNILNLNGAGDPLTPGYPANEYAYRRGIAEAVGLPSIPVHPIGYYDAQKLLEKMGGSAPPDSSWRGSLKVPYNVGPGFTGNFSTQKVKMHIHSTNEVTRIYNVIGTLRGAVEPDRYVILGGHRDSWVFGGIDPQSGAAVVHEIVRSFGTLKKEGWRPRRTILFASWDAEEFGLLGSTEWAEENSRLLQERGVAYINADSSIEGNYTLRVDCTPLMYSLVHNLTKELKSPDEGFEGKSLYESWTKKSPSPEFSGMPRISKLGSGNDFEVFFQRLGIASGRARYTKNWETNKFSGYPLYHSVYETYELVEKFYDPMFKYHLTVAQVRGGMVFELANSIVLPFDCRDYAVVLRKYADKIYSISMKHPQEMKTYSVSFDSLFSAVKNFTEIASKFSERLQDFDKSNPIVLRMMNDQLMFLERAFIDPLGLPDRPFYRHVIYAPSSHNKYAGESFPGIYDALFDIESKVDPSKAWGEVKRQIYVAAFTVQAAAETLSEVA

Binder | IC50 [1] [nM] | binding result [2]
B1 | > 4830 | –
B2 | – | binds
B3 | 1720 | –
